Paper PMC6100724 (2018)

Target: Scribble PDZ1 (His-tagged, aa 719-829) (human, UniProt Q14160 719-829)
Assay: ITC

Sequence of Scribble PDZ1 (His-tagged, aa 719-829) (Q14160 719-829): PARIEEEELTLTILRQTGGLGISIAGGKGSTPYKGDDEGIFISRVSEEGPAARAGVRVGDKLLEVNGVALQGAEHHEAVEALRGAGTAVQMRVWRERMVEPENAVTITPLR

- Kd: 1600 nM
B1: ARVSKETPL (MAPK12 peptide, unphosphorylated) (peptide)
peptide: ARVSKETPL
